Results reported in the DeepSol protein solubility set.

Assay: soluble on expression in E. coli; label from the status in PepcDB or PDB records
With “MGSDKIHHHHHHVTEAQTDPKYYDVVEATWPCLRCEKLGDITLRVGAGGGSRVSAATCDALVSDAQIAQAEAAMQDFDQPRLFMIRDGQDALDGQLERLGYAVMDPVALWTVAPSMLTDVEIPRVTTFCLWEPLAIQREIWATGGIGPERLAIMERATRPKTSILGRWDDKPAGAAFVGMHEGIAMLHALEILPHQRRKGMGVWMMRQAAYWAAEQGATELAVLCTRANAGANALYARLGMQQAGGYHYRIKR” the “soluble on expression in E. coli” value was “not soluble”. With “MGSDKIHHHHHHYGGDITYNNHNNFHVLHDRHHRSHHSRSNSRDSDEKWECRRLGVFNSPNPLTNPLLSAPKIAYFNRNGKEYAIAVCENPQIQILVGKSRGASPDFTQTRDYAVLSASSKSGLTFKCNRRHDRYEAVNLVTGSMARIEALACITVAQNDTAAVAIVNGIVGPLQAAGLHL” the “soluble on expression in E. coli” value was “not soluble”. With “MGSETKHSAKVKIVTRESPPSAKEHMRPTKTQILVPPTQSLPNGKKPNFGKSTKQRREPRERTSKTGHEDDKATMVTVNIDAFLHDKAPKKKSCKYKKKKTRQYQDRAAASIDSKPHVAGHTAFAGASFTTDIPHEAALPKPSFV” the “soluble on expression in E. coli” value was “soluble”. In the case of “MGSGKPPLILASGSPRRKALLEALGYPIRVAVPGVEEEGLPLPPKALAQALARRKGEAVQGEWVLAADTVVDLDGEVLGKPKDPEENRLFLRRLSGRLHLVHTAFYLRTPKEVVEEVHTARVFFRPLSEEEIAWYVGSGEGLDKAGGYGAQGLGMALLERVEGDFYTVVGLPVSRVFALLWARGFRP”, the “soluble on expression in E. coli” value is reported as “soluble”. With “MGSKGVYQYHWQSHNVKHSGVDDMVLLSKITENSIVENLKKRYMDDYIFTYIGSVLISVNPFKQMPYFGEKEIEMYQGAAQYENPPHIYALADNMYRNMIIDRENQCVIISGESGAGKTVAAKYIMSYISRVSGGGTKVQHVKDIILQSNPLLEAFGNAKTVRNNNSSRFGKYFEIQFSPGGEPDGGKISNFLLEKSRVVMRNPGERSFHIFYQLIEGASAEQKHSLGITSMDYYYYLSLSGSYKVDDIDDRREFQETLHAMNVIGIFAEEQTLVLQIVAGILHLGNISFKEVGNYAAVESEEFLAFPAYLLGINQDRLKEKLTSRQMDSKWGGKSESIHVTLNVEQACYTRDALAKALHARVFDFLVDSINKAMEKDHEEYNIGVLDIYGFEIFQKNGFEQFCINFVNEKLQQIFIELTLKAEQEEYVQEGIRWTPIEYFNNKIVCDLIENKVNPPGIMSILDDVCATMHAVGEGADQTLLQKLQMQIGSHEHFNSWNQGFIIHHYAGKVSYDMDGFCERNRDVLFMDLIELMQSSELPFIKSLFPENLQADKKGRPTTAGSKIKKQANDLVSTLMKCTPHYIRCIKPNETKKPRDWEESRVKHQVEYLGLKENIRVRRAGYAYRRIFQKFLQRYAILTKATWPSWQGEEKQGVLHLLQSVNMDSDQFQLGRSKVFIKAPESLFLLEEMRERKYDGYARVIQKSWRKFVARKKYVQMREEASDLLLNKKERRRNSINRNFIGDYIGMEEHPELQQFVGKREKIDFADTVTKYDRRFKGVKRDLLLTPKCLYLIGREKVKQGPDKGLVKEVLKRKIEIERILSVSLSTMQDDIFILHEQEYDSLLESVFKTEFLSLLAKRYEEKTQKQLPLKFSNTLELKLKKENWGPWSAGGSRQVQFHQGFGDLAVLKPSNKVLQVSIGPGLPKNSRPTRRNTTQNTGYSSGTQNANYPVRAAPPPPGYHQNGVIRNQYVPYPHAPGSQRSNQKSLYTSMARPPLPRQQSTSSDRVSQTPESLDFLKVPDQGAAGVRRQTTSRPPPAGGRPKPQPKPKPQVPQCKALYAYDAQDTDELSFNANDIIDIIKEDPSGWWTGRLRGKQGLFPNNYVTKI” the “soluble on expression in E. coli” value was “soluble”. In the case of “MGSKRVCPDANNSVKSKKAKTLDFLAHPRRKIAIQFFYLGWEHDGLVQQPHTQNTVENHIMQALIKTHLIEDWTKCDFSRCGRTDKGVSAFKQTAAMVVRSLCPGDSGVFWSDSTQEHQKVDYKASGEELPYVKMLNGVLPKTIRVFAWAPVAQTFNARFDCNRRTYKYSFAKADLNLEKMRQGAELLVGEHDFSNFCQIDMNEKRLLQSYVRKVYEVKVEQVSTHPENDMYSMVELTVSGSGFLWHMIRYIVTILQEIGRENEQPSLISQLLDLKKYPSRPQYTLASDTPLCLFDCGYKSEDVEWKVHDYTLKSTVTGLQKTWATYQARSRMMENMLGELTGMAEFSSGDANKGLHEFVQDRPIPSNYIRFENRKMCESLESKKEKMAEKKKNGEESSDKL”, the “soluble on expression in E. coli” value is reported as “not soluble”. In the case of “MGSKYSKATNSINDALSSSYLVPFESYRVPLVDLEEATNNFDHKFLIGHGVFGKVYKGVLRDGAKVALKRRTPESSQGIEEFETEIETLSFCRHPHLVSLIGFCDERNEMILIYKYMENGNLKRHLYGSDLPTMSMSWEQRLEICIGAARGLHYLHTRAIIHRDVKSINILLDENFVPKITDFGISKKGTELGQTHLSTVVKGTLGYIDPEYFIKGRLTEKSDVYSFGVVLFEVLCARSAIVQSLPREMVNLAEWAVESHNNGQLEQIVDPNLADKIRPESLRKFGDTAVKCLALSSEDRPSMGDVLWKLEYALRLQESVIHHHHHH”, the “soluble on expression in E. coli” value is reported as “soluble”. In the case of “MGSSHHHHHHDYDIPTTENLYFQGGGGGGMRAAVVYKTDGHVKRIEEALKRLEVEVELFNQPSEELENFDFIVSVGGDGTILRILQKLKRCPPIFGINTGRVGLLTHASPENFEVELKKAVEKFEVERFPRVSCSAMPDVLALNEIAVLSRKPAKMIDVALRVDGVEVDRIRCDGFIVATQIGSTGYAFSAGGPVVEPYLECFILIPIAPFRFGWKPYVVSMERKIEVIAEKAIVVADGQKSVDFDGEITIEKSEFPAVFFKNEKRFRNLFGKVRSIG”, the “soluble on expression in E. coli” value is reported as “soluble”. For “MGSSHHHHHHGSPIHDKSPRPQEFAAVDLGSNSFHMVIARVVDGAMQIIGRLKQRVHLADGLGPDNMLSEEAMTRGLNCLSLFAERLQGFSPASVCIVGTHTLRQALNATDFLKRAEKVIPYPIEIISGNEEARLIFMGVEHTQPEKGRKLVIDIGGGSTELVIGENFEPILVESRRMGCVSFAQLYFPGGVINKENFQRARMAAAQKLETLTWQFRIQGWNVAMGASGTIKAAHEVLMEMGEKDGIITPERLEKLVKEVLRHRNFASLSLPGLSEERKTVFVPGLAILCGVFDALAIRELRLSDGALREGVLYEMEGRFRHQDVRSRTASSLANQYHIDSEQARRVLDTTMQMYEQWREQQPKLAHPQLEALLRWAAMLHEVGLNINHSGLHRHSAYILQNSDLPGFNQEQQLMMATLVRYHRKAIKLDDLPRFTLFKKKQFLPLIQLLRLGVLLNNQRQATTTPPTLTLITDDSHWTLRFPHDWFSQNALVLLDLEKEQEYWEGVAGWRLKIEEESTPEIAA”, the “soluble on expression in E. coli” value was “soluble”. In the case of “MGSSHHHHHHMTYEYILVRYGEMTTKGKNRSKFVSTLKDNVKFKLKKFPNIKIDATHDRMYIQLNGEDHEAVSERLKDVFGIHKFNLAMKVPSELEDIKKGALAAFLQVKGDVKTFKITVHRSYKHFPMRTMELLPEIGGHILENTEDITVDVHNPDVNVRVEIRSGYSYIMCDERMGAGGLPVGVGGKVMVLLSGGIDSPVAAYLTMKRGVSVEAVHFHSPPFTSERAKQKVIDLAQELTKYCKRVTLHLVPFTEVQKTINKEIPSSYSMTVMRRMMMRITERIAEERNALAITTGESLGQVASQTLDSMHTINEVTNYPVIRPLITMDKLEIIKIAEEIGTYDISIRPYEDCCTVFTPASPATKPKREKANRFEAKYDFTPLIDEAVANKETMVLQTVEVVAEEEKFEELF”, the “soluble on expression in E. coli” value is reported as “soluble”. In the case of “MGSSHHHHHHSSGLVPAGSHMSDFDNITTADDVFKLAAQRTGLSEIDSDSWREGLALIVDEVNTSPVFTPFGRQRVLDDATNALGRRLQVHAYIQDHPEVLDAPVERPLIVLGMPRTGTTVISYLLDQDPARRSLLHWQCVHPIPPASTETLRTDPRCLALLDEQRKILDAVTRAKMPLPHWEDADGPTEDMFIHNQDFKGLSWDSFLPTDRYARWLFDEADMSSTYEYQKRYLQVLQSTAPGSWSLKMPSHSVHIEALLKVFPDARLIWAHRDPYKATGSLCNLWRLPQSLVMNTELLDQTEMGRLAMWQMRYHVDRPLRARERIGDERFFHMYYHEMMRDPMDVMRRIYEWADEPLTAETEARMRNWLAHHPQDRFALNAYRLDEYGLTVEALQPIFAEYLDTFDIELEGRP”, the “soluble on expression in E. coli” value is reported as “soluble”. For “MGSSHHHHHHSSGLVPRGSHMAADNRVQMRTTINNESPLLLSPLYGNDNGNGLWWGNTLKGAWEAIPEDVKPYAAIELHPAKVCKPTSCIPRDTKELREWYVKMLEEAQSLNIPVFLVIMSAGERNTVPPEWLDEQFQKYSVLKGVLNIANYWIYNNQLAPHSAKYLEVCAKYGAHFIWHDHEKWFWETIMNDPTFFEASQKYHKNLVLATKNTPIRDDAGTDSIVSGFWLSGLCDNWGSSTDTWKWWEKHYTNTFETGRARDMRSYASEPESMIAMEMMNVYTGGGTVYNFECAAYTFMTNDVPTPAFTKGIIPFFRHAIQNPAPSKEEVVNRTKAVFWNGEGRISSLNGFYQGLYSNDETMPLYNNGRYHILPVIHEKIDKEKISSIFPNAKILTKNSEELSSKVNYLNSLYPKLYEGDGYAQRVGNSWYIYNSNANINKNQQVMLPMYTNNTKSLSLDLTPHTYAVVKENPNNLHILLNNYRTDKTAMWALSGNFDASKSWKKEELELANWISKNYSINPVDNDFRTTTLTLKGHTGHKPQINISGDKNHYTYTENWDENTHVYTITVNHNGMVEMKI”, the “soluble on expression in E. coli” value was “soluble”. In the case of “MGSSHHHHHHSSGLVPRGSHMAEFRFIKTSLDGAIIIEPEVYTDERGYFMETFNEAIFQENGLEVRFVQDNESMSVRGVLRGLHFQREKPQGKLVRVIRGEIFDVAVDLRKNSDTYGEWTGVRLSDENRREFFIPEGFAHGFLALSDECIVNYKCTELYHPEYDSGIPWDDPDIGIDWPLEMVDDLIISEKDRNWKPLRENPVYL”, the “soluble on expression in E. coli” value is reported as “soluble”. In the case of “MGSSHHHHHHSSGLVPRGSHMAMVELSGTVTFWDTSNEAEKATYQALAEGFEKEHPKVDVKYVNVPFGEANAKFKNAAGGNSGAPDVMRTEVAWVADFASIGYLAPLDGTPALDDGSDHLPQAAASTRYEGKTYAVPQVIDTLALFYNKELLTKAGVEVPGSVAELKTAAAEITEKTGATGLYLRGDDPYWFLPYLYGEGGDLVDEKNKTVTVDDEAGVRAYRVIKDLVDSKAAITDASDGWNNMQNAFKSGKVAMMVNGPWAIEDVKAGARFKDAGNLGVAPVPAGSAGQGSPQGGWNLSVYAGSKNLDASYAFVKYMSSAKVQQQTTEKLSLLPTRTSVYEVPSVADNEMVKFFKPAVDKAVERPWIAEGNALFEPIRLQMANVLSGETSPDEAAANTGDAYRKLLKDYK”, the “soluble on expression in E. coli” value is reported as “soluble”. With “MGSSHHHHHHSSGLVPRGSHMAPIVETAKETNSDSSLYLDLMIKVLAGTVYEDPAHRENFSHRDSTYREEVRNEGRDWPANAHTMIGIKRLENIRQCVEDVIGNNVPGDLVETGVWRGGACILMRGILRAHDVRDRTVWVADSFQGIPDVGEDGYAGDRKMALHRRNSVLAVSEEEVRRNFRNYDLLDEQVRFLPGWFKDTLPTAPIDTLAVLRMDGDLYESTWDTLTNLYPKVSVGGYVIVDDYMMCPPCKDAVDEYRAKFDIADELITIDRDGVYWQRTR” the “soluble on expression in E. coli” value was “soluble”. For “MGSSHHHHHHSSGLVPRGSHMASKRCRQCSGDSASSSTSSLSPSELPPSKKAAGGQRVTAEVEVAPITTDATSATVTAAGGAKKKATTGSPARRTSSAAKITNGDAGELIRTAEALAALNAKKSEKEIWSDVVPFVRRTTDSDFDPSRMYKFITWNVAGLRGLLKKNASALRAFMEAEKPDVLCLQETKLNVDEADANATLGVVDGYSFVDHPCAFKRGYSGTRTYMKNSTTVKGLHARCTRGFALPSEPQADAAAGSRVLVEGAGDEEGRVLTTFLSPDPDSASSSSRIALVNTYVANSGMGLTRLPYRVQSFDPSMREYLHRLDTWATENAAVPSAAAMGSGSSPHGFIWAGDLNVAERDYDRYYAGTFKSMQECSGFAPEERMSFRETMQRTNSVDIFRQLYPQAGPVYSFWSQRINGRPRNLGWRLDYFVVSSRLASYVVDCFPMPTVMGSDHCPFQMWMRHP”, the “soluble on expression in E. coli” value was “soluble”.
